Values of other authors in article PMC6540150.

Target: SOUL BH3 (Homo sapiens) (UniProt Q9Y5Z4)

Kd: 40 µM
Substance: Bcl-xL (from UniProt Q07817)
